Laboratory results: PMC10195141 (Acta Biochimica et Biophysica Sinica, 2023)
Converted amounts (≈) assume the structure as drawn. One block for each compound: values may come before it.

Tests used:
M. mulatta Gal-10 = biological target: T1, M. mulatta Gal-10 (Macaca mulatta, UniProt A0AA82WNZ0); assay: inhibition of hemagglutination of chicken erythrocytes; type: cell-based; details: 10 mM Tris-HCl, 150 mM NaCl, pH 7.5, on ice, 60 min; carbohydrate binding site
T1 sequence (A0AA82WNZ0 4-142): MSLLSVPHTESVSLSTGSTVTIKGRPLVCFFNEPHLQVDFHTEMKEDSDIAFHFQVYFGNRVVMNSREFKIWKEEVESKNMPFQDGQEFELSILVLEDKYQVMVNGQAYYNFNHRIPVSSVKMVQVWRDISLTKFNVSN

[1] = biological target: Macaca fascicularis galectin-10 (Macaca fascicularis); assay: SEC
[2] = biological target: Macaca mulatta galectin-10 (Macaca mulatta); assay: SEC

- MIC (M. mulatta Gal-10): 6.25 mM (≈ 2140 µg/mL)
Compound: OC[C@H]1O[C@@H](O[C@H]2[C@H](O)[C@@H](O)C(O)O[C@@H]2CO)[C@H](O)[C@@H](O)[C@H]1O (stereo partly drawn) [lactose]

- stoichiometry N [1]: 2
Compound: Macaca fascicularis galectin-10 (natural protein)

- stoichiometry N [2]: 2
Compound: Macaca mulatta galectin-10 (natural protein)
